# Reference: patent US20220033498A1 (UNIVERSITY OF TOKYO, published 2022)
# T1: mouse CHL1 protein expressed on the surface of HEK293 cells transfected with mChl1 pIRES2-EGFP (mouse, UniProt P70232 26-1209)
# T1 construct: whole, on cells; also called CHL1 protein on cell surface; cell adhesion molecule L1-like
# T1 sequence (looked up): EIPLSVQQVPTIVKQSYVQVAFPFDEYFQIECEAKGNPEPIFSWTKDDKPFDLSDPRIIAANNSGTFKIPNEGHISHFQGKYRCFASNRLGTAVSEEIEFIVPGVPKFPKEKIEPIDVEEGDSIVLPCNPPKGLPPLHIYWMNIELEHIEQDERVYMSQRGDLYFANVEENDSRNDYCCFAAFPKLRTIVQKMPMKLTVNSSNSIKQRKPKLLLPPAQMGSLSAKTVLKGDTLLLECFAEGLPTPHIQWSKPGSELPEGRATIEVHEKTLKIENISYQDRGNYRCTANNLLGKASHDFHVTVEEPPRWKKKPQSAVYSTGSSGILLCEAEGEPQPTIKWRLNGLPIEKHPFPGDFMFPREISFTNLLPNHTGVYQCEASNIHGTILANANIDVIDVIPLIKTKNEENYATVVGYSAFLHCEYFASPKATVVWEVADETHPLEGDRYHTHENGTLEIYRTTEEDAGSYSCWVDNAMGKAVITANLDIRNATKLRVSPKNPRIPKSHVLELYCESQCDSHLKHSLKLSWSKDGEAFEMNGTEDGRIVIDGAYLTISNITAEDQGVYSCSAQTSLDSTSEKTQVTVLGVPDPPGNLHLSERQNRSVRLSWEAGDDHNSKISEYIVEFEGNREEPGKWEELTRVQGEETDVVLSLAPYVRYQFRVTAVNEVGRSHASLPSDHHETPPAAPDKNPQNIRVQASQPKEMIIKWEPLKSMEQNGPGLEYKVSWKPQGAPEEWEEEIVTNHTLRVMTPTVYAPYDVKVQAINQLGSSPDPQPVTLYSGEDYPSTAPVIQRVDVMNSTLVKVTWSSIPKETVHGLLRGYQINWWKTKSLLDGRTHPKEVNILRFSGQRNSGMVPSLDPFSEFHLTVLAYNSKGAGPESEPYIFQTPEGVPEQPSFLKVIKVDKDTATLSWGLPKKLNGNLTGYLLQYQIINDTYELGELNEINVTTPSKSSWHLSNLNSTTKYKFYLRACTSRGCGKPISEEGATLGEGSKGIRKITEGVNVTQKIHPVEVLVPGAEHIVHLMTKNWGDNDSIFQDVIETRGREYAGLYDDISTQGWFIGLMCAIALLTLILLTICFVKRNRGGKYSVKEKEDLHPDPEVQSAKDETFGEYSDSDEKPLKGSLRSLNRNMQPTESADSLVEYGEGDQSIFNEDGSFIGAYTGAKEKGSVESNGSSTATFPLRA
# Target: T1, mouse CHL1 protein expressed on the …
# Experiment: FACS: hybridoma culture supernatant on HEK293 cells transfected with mChl1 pIRES2-EGFP, detected with APC goat anti-rat IgG
# Excerpt: Mouse CHL1 gene (mChl1) was cloned into pIRES2-EGFP vector by PCR using Phusion (Thermo Fisher Scientific Inc.: F530L). Y3Ag cells ([…]) were transfected with mChl1 pIRES2-EGFP by electroporation, and four 7-week-old female or male SD rats (CLEA Japan, Inc.) were immunized from their footpads and tail roots with a mixture of the cells with TiterMax Gold (Funakoshi Co., Ltd.: G-1X5). After 3 to 8 immunizations, inguinal lymph nodes or iliac lymph nodes were isolated, and their cells were fused with AG8 myeloma cells using PEG1500 (Roche: 10783641001). The obtained hybridomas were screened in HAT medium (DS Pharma Biomedical Co., Ltd.: 16-808-49) or HT medium (DS Pharma Biomedical Co., Ltd.: 16-809-49) under conditions supplemented with BM condimed H1 (Roche: 11088947001). The culture supernatants were collected and reacted with HEK293 cells transfected with mChl1 pIRES2-EGFP. Then, antibody titers in the supernatants were studied by FACS analysis using APC goat anti-Rat IgG (BioLegend, Inc.: 405407).
binder,measurement,value
"336 antibody, a monoclonal antibody to the CHL1 protein (antibody, V domains shown, Rat monoclonal antibody from SD rats immunized with Y3Ag cells expressing mouse CHL1; Used as hybridoma culture supernatant in the FACS screen, and as protein G-purified antibody from ascitic fluid in later work) VH: EVQLQQSGPELQRPGASVKLSCKASGYPFTEYYIYWMKQRPKQGLELIGRIDPEDGSTDYVEKFKNKATLTADTSSNTAYMQLSSLTSEDTATYFCARALQGFAYWGQGTLVTVSS VL: EIVLTQSPTTMAASPGEKVTLTCRASSSVSYMYWYLQKSGTSPKLWIYDTSRLASGIPDRFSGSGSGTSYSLTISSMETEDTATYYCQQGGSYPYTFGAGTKLELKR",binding result,binds
